Data reported in the supplement of paper PMC10567573.

B1: ACSBG2 (parent)
chain: FAQADALKGTLVSTLKEVKPTVFI

Variants of: B1
Assay: protein stability index of a GFP-peptide fusion (GPS, HEK-293T) (PSI 1-6); higher = more stable
Conditions: c terminus: a fixed tail appended
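Further: lentivirally expressed fusions sorted by FACS into six bins by GFP to DsRed ratio, PSI derived from sequencing read proportions per bin multiplied by bin number.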

Protein stability index of substitutions, site by site:
T21: E 1.47, A 1.36, D 1.82
K16: D 1.65, E 2.38, P 2.41, F 2.41, C 2.34, A 1.97, H 2.75, Q 1.56, R 1.45, T 3.25, S 2.25, V 2.8, W 2.4
D5: I 2.7, P 1.9, M 2.98, S 2.67, A 3.35, V 2.08, Y 1.44, T 2.12, Q 2.4, R 1.55, K 1.69, H 1.3, E 1.26, N 1.9, C 1.35, F 3.26
T10: I 2.96, P 1.14, G 1.46, K 1.98, C 1.81, N 1.61, D 2.07, H 2.91, F 2.23, E 1.65, R 2.62, V 2.24, Y 3.48, Q 1.79, W 2.36, S 1.55, M 2.76, A 2.04
A2: M 1.79, D 2.11, F 2.79, L 2.46, R 1.42, H 2.08, P 1.48, T 1.56, C 1.85, N 1.45, K 2.49, E 2.05, I 1.22, S 1.76, G 2.13, Q 1.64
L15: E 2.39, M 1.6, H 1.93, Q 2.02, S 1.96, A 2.51, W 1.66, V 1.06, N 1.77, D 2.19, F 1.77, T 1.97, P 2, K 1.8, Y 1.78, G 1.4, R 2.1
K19: C 2.65, Q 2.08, P 2.84, N 1.48, T 2.53, G 3.46, R 1.02, A 2.49, E 1.48, F 3.16, W 1.99, Y 2.36, M 3.1, H 1.04, D 2.26, S 2.45
T14: V 2.05, S 1.08, L 1.51, K 2.03, D 1.88, P 1.23, Y 3.04, Q 1.95, F 2.64, H 2.27, I 2.22, E 1.26, N 2.26, M 1.32, A 1.8
A4: V 1.48, I 1.66, K 2.03, L 1.69, M 2.05, D 2.74, C 2.52, N 2.14, P 3.08, T 1.94, G 2.44, Y 1.52, R 2.19, H 2.31, E 2.77, F 2.18, S 1.69, Q 1.44
P20: Y 2.68, V 1.91, R 2.28, Q 2.13, S 2.9, G 2.47, L 3.23, F 2.4, N 2.42, W 2.33, K 1.25, D 1.51
L7: N 1.73, G 1.3, Q 2.11, K 2.37, M 2.73, A 2.1, C 1.52, S 1.67, T 2.02, E 2.5, P 2.05, H 2.16, D 2.12, V 1.91, F 3.08, R 2.07, I 1.86
F1: A 2.26, V 1.54, C 1.3, S 2, Q 3.73, Y 1.96
